test: yeast display, Sf9 membrane polyspecificity reagent, FACS + sequencing; frameworks hold sequencing errors
Summary of the method: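 Synthetic nanobody libraries on Saccharomyces cerevisiae BJ5465 were galactose-induced for 36–48 hours, stained 1 hour at 4 °C with 10% biotinylated, detergent-solubilized Sf9 membrane reagent and enriched on streptavidin microbeads. FACS then separated cells into low and high (top ~1%) gates by anti-HA (expression) and streptavidin (reagent binding) fluorescence. Genes were colony-PCR amplified, MiSeq 2 × 250 sequenced and CDR-length filtered. A clone's polyreactivity label is that of its gate of origin.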

Sequence	polyreactivity (PSR sort gate)
QVQLVESGGGLVHAGGSLRLSCAASGFTFRWYAMGWYRQAPGKERELVARIRGGGSTNYADSVKGRFTISRDNAKNTVYLQMNSLKPEDTAVYYCNTAYPWPPVKYDYWGQGTQVTVSS	high polyreactivity
QVQLVESGGGLVQAGGSLRLSCAASGRIFKLNAMGWYRQAPGKERELVAAITRGGRTYYADSVKGRFTISRDNAKNTVYLQMNSLKPEDTAVYYCNKKTYQQTYKYDYWGQGTQVTVSS	high polyreactivity
QVQLVESGGGLVQAGGSLRLSCAASRRIFYWYAMGWYRQAPGKEREWVAAITWSGGSTYYADSVKGRFTISLDNAKNTVYLQMNSLKREDTAVYFCNAEVYWDVYPGLYYYDIYDYWGQGNQVTVSS	low polyreactivity
QLQLVESVRGLVQAGGSLRLSCAASGGIFDTYAKGWYRQAPCKERELVASISRSGSTNYADSVKGRFTISRDNAKNTVYLQMNSLKPEDSAVYYCAADVFYSIYDYWGQGTQVTVSS	low polyreactivity
QVQLVESGGGLVQPGGSLRISCAASGSTFEYYAMGWYRQAPGKERELVAAITGSGGSTNYADSVKGRFTISRDNAKNTVYLQMNSLKPEDTAVYYCAADVYDAGVRYDYWGQGTQVTVSS	high polyreactivity
QVQLVESGGGLVQAGGSLRLSCAASGSTFGLNAMGWYRQAPGKERELVAAITSGGTYYADSVKGRFTISRDNAKNTVYLQMNSLKPEDTAVYYCAADGTWSIYGGLYYWGQGTQVTVSS	low polyreactivity
QVQLVESGGGLVQAGGSLRLSCAASGRTFSLYAMGWYRQAPGKERELVAAITLSAGSTYYADSVKGRFTISRDNAKNTVYLQMNSLKPEDTAVYYCNAAAYVWKSKQLLYVITYDYWGQGTQVTVSS	high polyreactivity
QVQLVESGGGLVQAGGSLRLSCAASGRTFGFYTMGCYRQAPGKERELVAAISWRGGSTYYADSVKGRFTISRDNAKNTVYLQMYSLKPEDTAVYYCAVRTNFGKMYYWGQGTQVTVSS	high polyreactivity
QVQLVESGGCLVQAGGSLRLSCAASGFTFRWYTMGWYRQAPGKERELVAAITGSGCTTYYADSVKGRFTISRDYAKNSVYLQMNSLKPVDTAVYYCAVVTGSFRTRYTYYYLGQGTQVTVSS	high polyreactivity
QVQLVESGGGLVQAGGSLRLSCAASGSISETNAMGWYRQAPGKERELVAAISGSGGSTYADSVKGRFTISRDNAKNTVYLQMNSLKPEDTAVYYCARDRYYTREWYWYRHDHWGQGTQVTVSS	low polyreactivity
QVQLVESGGGLVQAGGILRLSCAASGSTFSSNAMGWYRQAPGKERELVAAISVNGGSTNYADSVKVRFTISRDNAKNTVYLQMNSLKPEDTAVYYCAAEPAKVAFYRGDYWGQGTEVTVSS	low polyreactivity
QVHLVESGGGLVQEGGSLLLSCAASGSIFQIYTMGRYRQAPGKERELVAAISSSVSTNYADSVKGRFTISRDNAKNTVYLQMHTLKPEDTAVYYCNRDDYNTADRDASGYWGQGTQVTVSS	low polyreactivity
QVQLVESGGGLVQAGGSLRLSCAASGRIFPYYAMGWYRQAPGKERELVAAITQGGGRTYYADSVKGRFTISRDNAKNTVYLQMNSLKPEDTAVYYCAKRFTIRALLLRWADYDYWGQGTQVTVSS	low polyreactivity
QVQLVESGGGLVQAGGSLRLSCAASGRIFPFNAMGWYRQAPGKERELVAAITSSGGRTYYADSVKGRFTISRDNAKNTVYLQMNSLKPEDTAVYYCAATLVRRARSGPMGYWGQGTQVTVSS	high polyreactivity
QVQLVESGGGLVQAGGSLRLSCAASGSTFPPNAMGWYRQSPGKERELVAVISYSDGSTYYADSVKGRFTISRDNAKNTVYLQMNSLKPEDTAVYYCAAYCGYGGVSMYYWGQGTQVTVSS	low polyreactivity
QVQLVESGGGLVQAGGSLRLSCAASGSTFAYYAMGWYRPAPGKERELVAVISVRGGSTYYAESVKGRFTISRDNAKNTVYLQMNSLKPEDTAVYYCAADTFAGYYYWGQGTQVTVSS	high polyreactivity
QVQLVESGGGLVQAGGSLRLSCAASGNTFYGYAMGWYRQAPGKERELVASITLSGDSTYYSDSVKGRFTISRDNAKNTVYLQMNSLKPEDTAGYYCAFDGYWYGGIFYYGGQGTQVTVSS	low polyreactivity
QVQLVESGGGLVQAGGSLRLSCAASGRTFEQNAMGWYRQAPGKERELVASITSVGSTDYADSVKGRFTISRDNAKNTVYLQMNSLKPEDTAVYYCAKTLCSQNYDFDYWGQGTQVTVSS	low polyreactivity
QVQLVESGGGLVQAGGSLRLSCAASGFIFFGEYVRGWYRQAPRKEREFVAAITDSDGSTYYADSVKGRFTISRDNAKNTVYLQMNSLKPEDTAVYYCAAERVYSDIDYWGKGTQVTVSS	low polyreactivity
QVQLVESGGGLVQAGGSLRLSCAASGSTFNEYVMGWYRQAPGKERELVAAITGGGGRTYYADSVKGRFTISRDNAKNTVYLQMNSQKPEDTAVYYCAKRYLYGTYWGFFRYDYWGQGTQVTVSS	low polyreactivity
QVQLVESGGGLVQAGGSHRISCAASGRTFARYVMGWYRQAPGKERELVAAISRSGGTYYADSVKGRFTISRDNAKNTVYLQMNSLKPEDTAVYYCRIPSHGGVYWGQGTQVTVSS	high polyreactivity

Sequence	polyreactivity (PSR sort gate)
QVQLVESGGGLVQAGGSLRLSCAASGRTYAYYAMGWYRQAPGKERELVAAITRGTDTHYADSVKGRFTISRDNAKNTVYLQMNSLKPEDTAVYYCAADLSQDFDYWGQGTQVTVSS	low polyreactivity
QVQLVESGGGLVQAGGSLRLSCAASGSTFDYYPMGWYRQAPGKERELVAAITYSGGRTSYADSVKGRFTISRDNAKNTVYLQMNSLKPEDTAVYYCAAVYDGQYYASYSTYDYDYWGQGTQVTVSS	low polyreactivity
QVQLVESGGRLVQAGGSLRLSCAASGRIFANYAMGWYRQAPGKERELVAAISRSGGSTSYADSVKGRFTISRDNAKNTVYLQMNSLKTEDTAVYYCAATRSRYQPVKYGYWGQGTQVTVTS	high polyreactivity
QVQLVESGGGLVQAGGSLRLSCAASGSTFAPNAMGWYRQAPGKEREFVATISASGGYTYYADSVKGRFTISRDNAKNTVYLQMNSLKPEDTAVYYCYAVWRVGRQLSQAKIPYDYWGQGTQVTVSS	low polyreactivity
QVQLVESGGGLVQAGGSLRLSCAASGSIFSFYAMGSYRQAPGKERELVAAISWSGGSTYYADSVKGRFTISRDNAKNTVYLLMNSLKPEDTAVYYCAREKAVSYYGYDHWGQGTQVTVSS	low polyreactivity
QVQLVESGGGLVQAGGSLRLSCAASGRTFRYYAMGWYRQAPGKERELVAAISWSGSSTYYADSVKGRFTISRDNAKNTVYLQMNSLKAEDTAVYFCNAKGVRGKYFDYSRVSAYDYWGQGTQVTVSS	low polyreactivity
QVKLLESGGGLLQAGGSLRLSCAASGLTFYPYAMAWYRQAPGKERELVATITWSGTTTYYADSVKGRFTISRDNAKNTVYVQMNSLKPEDTAVYYCAADLWEVVTPYVTIDDDYWGQGTQVTVSS	high polyreactivity
QVQLVESGVGLVQAGGSLRLICADSGSIFSQYAMGGYRPAPGKERELVAAISKNGGSTYYADSVKGRFTISRDNAKNTVYSQMNSLKPEDTAVYYCAARVLKGYYWGQGTQVTVSS	high polyreactivity
QVHLVESRGVLVQAGGSLRLSCAASGRTFPSYTMGWYRQAPGKERELVAAITWTGGSTYYADSVKGRFTISRDNAKNTVYFQMNSLKPDDTAVYYCADYDYWGQGTQVTVSS	low polyreactivity
QVQLVESGGGLVQAGGSLRLSCAASAITFFNNAMGWYRPATGKERELVADITYSGSTYYADSVKGRFTISRDNAQNSVYLQMNSLKPEDTAVYYCSAGHAYDYFVYYPDDYWGQGTQVTVSS	low polyreactivity
QVQLVESGGGLVQAGGSLRLSCAASGSIFLHNAMGWYRQAPGTERELVAGITSSGTSTYYADSVKGRFTISRDIAKNTVYLQMNSLKPEDTAVYYCAAYRYGSRGGYWGQGTHVTVSS	high polyreactivity
QVQLVESGGGLVQAGCSLRLSCAASGSTFYYYAMGWYRQAPGKERELVAAISNRDGRTYYADSVKGRFTISRDTAKNTVYFQMNSLKPEDSAVYYCNAYSYGHYYWGHGTQVTVSS	high polyreactivity
QVQLVESGGGLVQAGGSLRLSCAASGSIFGSYAMGWYRQAPGTERELVAAIDWSGVGTYYADSVKGRFTISRDNANNTVYLQMNSLKPEDTAVYYCAAGVLRRDTELYYWGQGTQVTVSS	low polyreactivity
QVQLVESGGGLVQAGGSLRLSCAASGRTLGANAMGWYRQAPGKERELVAAITDSGGSTYYADSVKGRFTISRDNAKNTVYLQMNSLKPEDTAVYYCAAKQAYSSTYVWPIFDYWGQGTQVTVSS	low polyreactivity
QVQLVESGGGLVQARGSLRLSCAASGSIFDPNAMGWSRQAPGKVRELGAAMTSGGGSTYYADSVKGRFTISRDNAKNTVYLQMNSLKPEDTAVYYCNNVFVLPYNFVAWFDYWGQGTQVTVSW	low polyreactivity
QVQLVESGGGLVQAGGSLRLSCAASGNIFGQNAMGWYRQAPGKERELVAAISSNGGRTYYADSVKGRFTISRDNAKNTVYLQMNSLKPEDTAVYYCAAEAVYAYEWYYYWGQGTQVTVSS	high polyreactivity
QVQLVESGGGLVQAGGSLRLSCAASGIIFGHYDMGWYRQAPGKERELVAAITFTGDSTYYADSVKGRFTISRDKAKNTVYLQMTSLKPEDTAVYYCAAETPVPWGSWGYDYWGQGTQVTVSS	low polyreactivity
QVQLVESGGGLVQAGGSLRLICAASGIIFHFNDMGWYRQAPGKERELVAAIDSTGSTNYADSVKGRFTISRDNAKNTVYLQMNSLKPEDTAVYYCAVLNHRVDSVLTRYYYWGQGTQVTVSS	low polyreactivity
QVQLVDSGGGLFQAGGSLRLSCAASGSTFYRYAKGWYRQAPGKERELVATITNSGGSTYYADSVKGRFTISRDNAKNTVYLPRNSLKPEDTAVYYCAAVGGRLRGDRGGYWGQGSQVTVSS	high polyreactivity
QVQLVESGGGLVQAGGSLRLSCAASGRIFSRYALGWYRQAPGKERELVAGITRSGTTTYYADSVKGRFTISRDNAKNTVYLQMNSLKPEDTAVYYCAAPPIGPNLYDYWGQGTQVTVSS	high polyreactivity

Reference: the nanobody polyreactivity screen of Harvey et al. (2022)
